# Measurements taken from the DeepSol protein solubility set.
# Test: soluble on expression in E. coli; label from the status in PepcDB or PDB records
row,Sequence,soluble on expression in E. coli
1,MNTNISGPLISLIVPVYNVKDYLKTCLQSILEQTYKNLEIILVDDGSDDGSSGICDEYARMDQRIKTIHLPHSGVSAARNAGLAAATGELLGFVDSDDWIDHDMYQYLYTLMQEHDADVSACTYLLEQEGRPSKIINNTGKLYVFSRKEIIRALVKNDLVKNYLWAKLFKRKLFDRLSFPVGRVYEDVAVLYKVFYSSQKVVLSCVSKYHYMIHKNESITRGGYDPVKEYHYFLSLYEQDKFIQNAELGGESSVGVLKRGIHLINHTLLCPPSPAFEDIIDETMLKMREYRHITPWQLGPSMSIKRYFMCKHFGFYRMLYRGYRAIFKRKHKLLID,not soluble
2,MNTPLKRFFKIGYVIENFLHPYHNKKLLPLSRGVNIKGIFVLLNTLWRVFQDGSLQDLWSFT,not soluble
3,MNTPNSSCTILFENLYDNDLALKLFNNRTIVDNILRNVKGDINNRLELRLVNKSFNLAAIHVIRKENRTVVFHKFNRCDRLHKISPCPDCSVHLNSVKLNKKNIFQYARFLKQTMKIMVIKIRIEDSKRVCCMITDVHQVIHKSLIGSDYDKVEEFVGIDQISFSTCIPCEKIAANCKVFGPVQNDMFNAILRLKHHYDVLQVKDMRLYKLMILNKEDPTVVEDFINSNITCSKLTIFLMYMYEKEAFGYSLPREFLDLLIKKWNVKTVEIVPRQDQPIPYYFHCNTDFIVPKAKFYVDYWTQPRSKYTLDGVEIDLQLTKVVEQQIKNRKSLFDNFIANARRIFPSNKITVRFSKEVCQEMMSQGNVEDFISGIILMTQKDAQPNSHISLKLYPEEVDAPLIDSFLRENFEKKFDSWNLETVSDSSANLPAEKCYQFFNQSTNCKIIFYICC,not soluble
4,MNTQILGLHHVTAMTSSAEKIYHFFTDILGLRLIKKTVNQDDIETYHLFFADDAGSPGTDMTFFDFPGLPKGTKGTNTISRTSFRVKDDATLDYWVSRFNEYAIDHGEIQERFGKKYLEFEDFDNQRYQLISDEKNQCVAAGTPWKKSNVPSEHALIGLGPAFVTVENYEHLQLVLTEVLGFKLIDAEGSFHLFEVGEGGNGASIIVEHREDLPAAQEGYGNVHHLALRVADEEALRFWIEKINRLEFPNSGFVERFYFKSEYFLAATHVLFELATDGPGFLEDETYEHAGEKLSLPPFLEPKRAGIEEFVRPFDTSDANVQRN,not soluble
5,MNVIALMAGDSNDFKEKGYTYPKYFLELDNKPLVQNIVESLKKIDCKITFIIRKEDNDQFFLGSSLKILAPFADVVCISGSTKGAVCTTLFAIDSINNEDEVLLINGDQLVKYDINDIIADFRERNLDGGIVTFESVHPRWSYVCLDEQGLVVQTSEKRPISNVATAGIYYYKRGLDLVESCFSVLKKDVQLNGSYYISSTFNELILRQKKVGVYKIDKKEYISFATTQMYENYINKKLEHHHHHH,soluble
6,MNVKGFRFSAVEAAIKKPGRLDLALICSDAPAAVAAVYTTNKVKAAPVLLDMERTTSGTCRAVVVNSGNANACTGDRGMEDARETTSLVAERIGASEHEVLVCSTGVIGVPLPMERIRGGIPSLVAGLGSATLDQIAAAIMTTDTFPKLEARTGTAGGVGYTIAGIAKGAGMIMPNMATMLAFVVTDAAVDPQWLDRVFRRANDTSFNAITVDGDMSTNDTAIIMANGAAGNPVLSEGSEGAAEFAVLLEEVLLSLAKLIVKDGEGATKFVEVTVKGARSDADAKRAAMAVANSCLVKTAFFGQDANWGRIFAAVGYSGADVEPDRAELFFDDVRMVQGGVFAGGDAEARGTGVLRKKEFTVTVDLHLGDGRATVYTSDLSYDYVKINADYRTLEHHHHHH,not soluble
7,MNVLIVDDEPLARERLSRMVNEIEGYRVLEDSASNGEEALALIEKHKPDVVLLDIRMPGIDGLQVAAKLCEREAPPAVVFCTAHDEFALEAFQVSAVGYLVKPVRAEHLIEALKKAERPNRVQLAAMTRPAAESGSGPRTHISARTRKGIELIPLDQVIYFIADHKYVTLRHEGGEVLLDEPLKALEDEFGDRFVRIHRNALVARKRIESMKRTPVGHFELFLRGLNGDALIVSRRHVAGVRKMMQQL,soluble
8,MNVTYLHDEDLDFLQHCSEEQLADFARLLTHNEKGKARLSSVLSHNELFKAMEGHPEQHRRNWQLIAGEFQHYGGDSIANKLRGHGKQYRAILLDVAKRLKLKADKSMSTFEIEQQLLEHFLRHTWQKMDAAHKQEFLQAVDAKVSELEELLPLLMKDRSLAKGVSHLLSTQLTRILRTHAAMSILGHGLLRGAGLGGPVGAALNGVKAMSGSAYRVTIPAVLQIACLRRMMAAVQA,not soluble
9,MNVYFLGGGNMAAAVAGGLVKQGGYRIYIANRGAEKRERLEKELGVETSATLPELHSDDVLILAVKPQDMEAACKNIRTNGALVLSVAAGLSVGTLSRYLGGTRRIVRVMPNTPGKIGLGVSGMYAEAEVSETDRRIADRIMKSVGLTVWLDDEEKMHGITGISGSGPAYVFYLLDALQNAAIRQGFDMAEARALSLATFKGAVALAEQTGEDFEKLQKNVTSKGGTTHEAVEAFRRHRVAEAISEGVCACVRRSQEMERQYQ,soluble
10,MNVYNKADSFSLESDSIKDVIHDYICWLSMTDETRPSIGNVFTAMETFKIDAVRYYDGNIYDLAKDINTMSFDSFIRSLQNITSKKDKLTVYGTMGLLSIVVDINKGRDVSNIKFAAGIIILMEYIFDDTDLSHLKIALYRRIQRRYPIDDDR,not soluble
11,MNYGFVKVAAAVPRVKVADCKFNSERLEGLITIAEGKGVQILTFPEMCITGYTCGDLFAQQLLLEQAEMALIQILNSTRQLDIISILGMPVVVNSTVINAAVVIQKGKILGVVPKTYLPNYKEFYEQRWFTSALQVSENSVRLCGQIVPMGNNLLFETAETTFGIEICEDLWATVPPSSSLALQGAEIIFNLSADDEGIGKHNYLCSLISQQSARCISGYVFSSSGFGESTTDVVFAGNGLIYENGYLLARSERFCMEEQLIINEIDVECIRAERRVNTTFAANKANCPGLEHHHHHH,not soluble
12,MNYIESLISSVDSQIDTLNKAMIEVQSTIDLLSNGDLASSPEKLISIGSGLFAKGNITIDEDLIVPIGSGIYVAETKERSVERLKKNLEDIKASIQKLLDQRKTLVDQYNTVYATEATRNVK,not soluble
13,MNYNNKILVSESGLSQKHLIHGDEELFQHELKTIFARNWLFLTHDSLIPAPGDYVTAKMGIDEVIVSRQNDGSIRAFLNVCRHRGKTLVSVEAGNAKGFVCSYHGWGFGSNGELQSVPFEKDLYGESLNKKCLGLKEVARVESFHGFIYGCFDQEAPPLMDYLGDAAWYLEPMFKHSGGLELVGPPGKVVIKANWKAPAENFVGDAYHVGWTHASSLRSGESIFSSLAGNAALPPEGAGLQMTSKYGSGMGVLWDGYSGVHSADLVPELMAFGGAKQERLNKEIGDVRARIYRSHLNCTVFPNNSMLTCSGVFKVWNPIDANTTEVWTYAIVEKDMPEDLKRRLADSVQRTVGPAGFWESDDNDNMETASQNGKKYQSRDSDLLSNLGFGEDVYGDAVYPGVVGKSAIGETSYRGFYRAYQAHVSSSNWAEFEHASSTWHTELTKTTDR,soluble
14,MNYQNDDLRIKEIKELLPPVALLEKFPATENAANTVAHARKAIHKILKGNDDRLLVVIGPCSIHDPVAAKEYATRLLALREELKDELEIVMRVYFEKPRTTVGWKGLINDPHMDNSFQINDGLRIARKLLLDINDSGLPAAGEFLDMITPQYLADLMSWGAIGARTTESQVHRELASGLSCPVGFKNGTDGTIKVAIDAINAAGAPHCFLSVTKWGHSAIVNTSGNGDCHIILRGGKEPNYSAKHVAEVKEGLNKAGLPAQVMIDFSHANSSKQFKKQMDVCADVCQQIAGGEKAIIGVMVESHLVEGNQSLESGEPLAYGKSITDACIGWEDTDALLRQLANAVKARRG,soluble
15,MNYSLRQLRIFITVAQAKSFSRAGDRIGLSQSAVSHSVKELERQTGVRLLDRTTREVVLTEAGQQLATRLERVLDELNSILRDAGRVGTQLTGTVRVAASQTISAHLIPQCIAQSNSLYPAIDFVLHDRPQQWVLESIRQGEVDFGIVIDPGAAVDLQCEAILSEPFLLLCRQDHPLAHQEWVSWQDLKQASLVLQDYASGSRPLIDAALAHFAIEADIVQEIGHPATLFPMVEAGIGISVLPALALPLPQGSHLQVKRLTPVVERQLMLARRKNRSLSTAAQALWDVVRTQASELTAARAKDPLYQL,not soluble
16,MNYVKIGVGGPVGSGKTALIEKLTRILADSYSIGVVTNDIYTKEDAEFLIKNSVLPKERIIGVETGGCPHTAIREDASMNLEAVEELVQRFPDIQIVFIESGGDNLSATFSPELADATIYVIDVAEGDKIPRKGGPGITRSDLLVINKIDLAPYVGASLEVMERDSKKMRGEKPFIFTNLNTNEGVDKIIDWIKKSVLLEGV,soluble
17,MPAALLISGPCKICDLPAHGNHFGVLSCRACAAFFRRASRSPRFQDKACEYGDCRIFDAGAYRCKICRLKKCYKVGMDASKFQKDRDLISSSNAYLKRTKVYAPQSLANFLGRPEFIISFEPEKASPFKTVIDVTDLVHKAAEIFQEVKVIFWHKPTLHGPIDVFFASNFAVL,soluble
18,MPAILETNPIAIRACILYEVRQKRPIFESFKNFCNAFGNDFMEYREFERWFYRFYHGNEDLDYDMSREPKTASLSELPIEILFKIVENLNFLDRLLLRNVSPCFRSIAEDHVNEVTNISVTSIPNHVHVCFYHESDYTDIICKRVDDDCVITKMSQYEDSKDWKIEGVSHVTVALNYLSRVLKSPKLKLEKLRLDFLEHNKEDTQCMEELLTVLENSEPHVLNIEFEGLNFHETSSVLKNLKNVEEIQLSMYSIQELSGIEKLVELEQWKTAKTLDISSHEDIEMDIKDLLHFQSIDVRLKSFSVQDAVKVKETLELRTSDFRSGTFRVLNTDTRKIGKVFNPKYTDAANNTFNFKTKNSSFEITMCSKEIYVKRKL,not soluble
19,MPDKKREVSLSHRLQEVASFVPKGARLLDVGSDHAYLPIYLLEQGLIDFAVAGEIIKGPYESAVANVSESELSGQIAVRLADGLAALNDNDDIDLITICGMGGRLIADILAAGSDKLNSVKQLILQPNNCEDDLRSWLVANDFMIKAEKMVKDRHKYYEILVVEKGKITLSDKDLRFGPFLRQERSSIFKERWRKELAKLELALTKVPAKKKADNMFLSTKIEQIKEVLYES,not soluble
20,MPDTSFSNPGLFTPLQLGSLSLPNRVIMAPLTRSRTPDSVPGRLQQIYYGQRASAGLIISEATNISPTARGYVYTPGIWTDAQEAGWKGVVEAVHAKGGRIALQLWHVGRVSHELVQPDGQQPVAPSALKAEGAECFVEFEDGTAGLHPTSTPRALETDEIPGIVEDYRQAAQRAKRAGFDMVEVHAANACLPNQFLATGTNRRTDQYGGSIENRARFPLEVVDAVAEVFGPERVGIRLTPFLELFGLTDDEPEAMAFYLAGELDRRGLAYLHFNEPDWIGGDITYPEGFREQMRQRFKGGLIYCGNYDAGRAQARLDDNTADAVAFGRPFIANPDLPERFRLGAALNEPDPSTFYGGAEVGYTDYPFLDNGHDRLG,soluble
21,MPEEIATLAGGCFWCTEAAFKLLRGVLEVVPGYAGGHVPHPTYEEVCTGTTGHREAVQVRFDPGVLPYADLLRYFFAVHDPTSEDRQGPDVGPQYSPAIFYHSEEQKRVAEAVMRELAPLYPKPIATKLLPFTTFYPAEAYHRDYFARHPEAPYCRFVIAPKLEKARKAFKSLLRP,soluble
22,MPELPEVETVRRELEKRIVGQKIISIEATYPRMVLTGFEQLKKELTGKTIQGISRRGKYLIFEIGDDFRLISHLRMEGKYRLATLDAPREKHDHLTMKFADGQLIYADVRKFGTWELISTDQVLPYFLKKKIGPEPTYEDFDEKLFREKLRKSTKKIKPYLLEQTLVAGLGNIYVDEVLWLAKIHPEKETNQLIESSIHLLHDSIIEILQKAIKLGGSSIRTYSALGSTGKMQNELQVYGKTGEKCSRCGAEIQKIKVAGRGTHFCPVCQQK,soluble
